In patent publication US20060140929:
Numbering of substitutions follows the chain as printed.

Legend:
[1] = system: T1, hirudin mutein M 1 (I29A L30A)
T1 sequence: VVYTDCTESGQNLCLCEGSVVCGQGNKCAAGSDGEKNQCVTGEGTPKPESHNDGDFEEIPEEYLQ

[2] = system: T2, hirudin mutein M 2 (I29R L30H)
T2 sequence: T1 sequence with A29R, A30H

thrombin
Relative activity (ED50 variant/ED50 WT hirudin), chromogenic thrombin cleavage assay [1]: 1.4
Relative activity (ED50 variant/ED50 WT hirudin), chromogenic thrombin cleavage assay [2]: 1.2
